Columns and labels:
Test in all cases: holdup assay
Parameters in all cases: key: below the threshold = too weak to quantify, mostly under pKd 3.1 to 4
Conditions in all cases: plain residues with an end cap or a label only (N-terminal biotin on a linker: ado-ado)
PDZD7_3, Q9H5P4 = target: T1, PDZD7_3, Q9H5P4
T1 sequence (Q9H5P4 857-944, limits assumed, looked up): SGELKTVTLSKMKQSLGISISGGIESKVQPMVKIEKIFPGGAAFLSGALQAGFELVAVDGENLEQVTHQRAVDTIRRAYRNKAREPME

TJP2_1, Q9UDY2 = target: TJP2_1, Q9UDY2
LIMK2, P53671 = target: LIMK2, P53671
APBA2_1, Q99767 = target: T2, APBA2_1, Q99767
T2 sequence (Q99767 563-664, limits assumed, looked up): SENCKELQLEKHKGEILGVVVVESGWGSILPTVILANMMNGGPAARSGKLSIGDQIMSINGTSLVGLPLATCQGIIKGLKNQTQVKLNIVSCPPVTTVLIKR

GRIP2_7, Q9C0E4 = target: GRIP2_7, Q9C0E4
PARD3B_1, Q8TEW8 = target: T3, PARD3B_1, Q8TEW8
T3 sequence (Q8TEW8 196-299, limits assumed, looked up): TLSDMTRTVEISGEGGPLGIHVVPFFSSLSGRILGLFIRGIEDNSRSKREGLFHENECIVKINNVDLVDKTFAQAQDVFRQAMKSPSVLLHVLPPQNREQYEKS

DLG2_2, Q15700 = target: DLG2_2, Q15700
GORASP1, Q9BQQ3 = target: GORASP1, Q9BQQ3
APBA3_1, O96018 = target: T4, APBA3_1, O96018
T4 sequence (O96018 389-490, limits assumed, looked up): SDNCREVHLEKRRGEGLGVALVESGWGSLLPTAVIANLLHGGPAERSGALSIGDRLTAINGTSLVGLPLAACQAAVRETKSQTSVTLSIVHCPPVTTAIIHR

TJP3_3, O95049 = target: T5, TJP3_3, O95049
T5 sequence (O95049 375-456, limits assumed, looked up): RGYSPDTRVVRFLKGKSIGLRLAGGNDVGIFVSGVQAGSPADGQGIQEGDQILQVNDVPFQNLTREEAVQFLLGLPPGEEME

DVL3, Q92997 = target: T6, DVL3, Q92997
T6 sequence (Q92997 244-331, limits assumed, looked up): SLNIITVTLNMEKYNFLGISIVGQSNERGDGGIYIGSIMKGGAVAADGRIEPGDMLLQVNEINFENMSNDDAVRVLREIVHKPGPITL

SIPA1L2, Q9P2F8 = target: T7, SIPA1L2, Q9P2F8
T7 sequence (Q9P2F8 945-1036, limits assumed, looked up): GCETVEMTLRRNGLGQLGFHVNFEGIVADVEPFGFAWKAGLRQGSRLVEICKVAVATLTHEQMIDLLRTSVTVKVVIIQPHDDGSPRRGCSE

DFNB31_2, Q9P202 = target: T8, DFNB31_2, Q9P202
T8 sequence (Q9P202 274-371, limits assumed, looked up): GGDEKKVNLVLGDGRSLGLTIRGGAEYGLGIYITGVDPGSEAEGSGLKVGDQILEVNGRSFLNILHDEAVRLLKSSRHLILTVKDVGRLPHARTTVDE

SNTG1, Q9NSN8 = target: T9, SNTG1, Q9NSN8
T9 sequence (Q9NSN8 52-150, limits assumed, looked up): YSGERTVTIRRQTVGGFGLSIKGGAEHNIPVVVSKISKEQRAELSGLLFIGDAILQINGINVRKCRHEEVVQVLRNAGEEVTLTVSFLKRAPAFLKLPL

MAGI1_2, Q96QZ7 = target: MAGI1_2, Q96QZ7
SCRIB_3, Q14160 = target: SCRIB_3, Q14160
SNTA1, Q13424 = target: T10, SNTA1, Q13424
T10 sequence (Q13424 82-180, limits assumed, looked up): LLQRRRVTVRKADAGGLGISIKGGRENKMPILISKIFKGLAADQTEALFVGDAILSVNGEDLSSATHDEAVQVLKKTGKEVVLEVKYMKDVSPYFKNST

GRIP2_3, Q9C0E4 = target: GRIP2_3, Q9C0E4
ARHGEF12, Q9NZN5-2 = target: ARHGEF12, Q9NZN5-2
NHERF3_3, Q5T2W1 = target: T11, NHERF3_3, Q5T2W1
T11 sequence (Q5T2W1 238-333, limits assumed, looked up): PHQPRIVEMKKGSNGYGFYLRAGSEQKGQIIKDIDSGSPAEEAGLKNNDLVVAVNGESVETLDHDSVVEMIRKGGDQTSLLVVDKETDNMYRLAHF

NHERF4_2, Q86UT5 = target: NHERF4_2, Q86UT5
CASK, O14936 = target: CASK, O14936
HTRA3, P83110 = target: T12, HTRA3, P83110
T12 sequence (P83110 354-453, limits assumed, looked up): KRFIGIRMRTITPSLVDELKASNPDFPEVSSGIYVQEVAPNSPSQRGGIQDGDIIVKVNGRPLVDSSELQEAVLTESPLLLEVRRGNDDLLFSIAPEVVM

PARD3_3, Q8TEW0 = target: PARD3_3, Q8TEW0
TJP1_2, Q07157 = target: TJP1_2, Q07157
SCRIB_1, Q14160 = target: SCRIB_1, Q14160
Chain of SCRIB_1, Q14160 (Q14160 718-814): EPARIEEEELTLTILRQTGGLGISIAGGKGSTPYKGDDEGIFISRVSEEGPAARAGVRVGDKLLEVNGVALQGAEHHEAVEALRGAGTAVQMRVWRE

Chain of SCRIB_3, Q14160 (Q14160 999-1103): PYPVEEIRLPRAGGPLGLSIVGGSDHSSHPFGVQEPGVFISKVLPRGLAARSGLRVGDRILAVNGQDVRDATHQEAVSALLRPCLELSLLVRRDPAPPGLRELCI
Chain of GRIP2_3, Q9C0E4 (Q9C0E4 238-339): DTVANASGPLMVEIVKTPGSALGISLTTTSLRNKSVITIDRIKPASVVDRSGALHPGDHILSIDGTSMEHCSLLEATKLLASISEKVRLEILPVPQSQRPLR
Chain of MAGI1_2, Q96QZ7 (Q96QZ7 456-580): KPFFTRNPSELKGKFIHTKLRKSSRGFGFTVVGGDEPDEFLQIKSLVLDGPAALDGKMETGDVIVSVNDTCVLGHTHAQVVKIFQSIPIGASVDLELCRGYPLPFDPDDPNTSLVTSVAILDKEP
Chain of TJP2_1, Q9UDY2 (Q9UDY2 24-128): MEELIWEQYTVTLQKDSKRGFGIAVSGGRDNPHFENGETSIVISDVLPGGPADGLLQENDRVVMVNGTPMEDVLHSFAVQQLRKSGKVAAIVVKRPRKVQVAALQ
Chain of GRIP2_7, Q9C0E4 (Q9C0E4 934-1023): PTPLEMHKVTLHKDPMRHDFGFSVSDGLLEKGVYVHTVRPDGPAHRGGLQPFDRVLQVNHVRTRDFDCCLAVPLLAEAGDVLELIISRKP
Chain of ARHGEF12, Q9NZN5-2 (Q9NZN5 other isoform, or with tags, fused parts or gaps): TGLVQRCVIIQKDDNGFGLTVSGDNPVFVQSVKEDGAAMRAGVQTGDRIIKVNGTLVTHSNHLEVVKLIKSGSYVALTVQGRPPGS
Chain of DLG2_2, Q15700 (Q15700 189-283): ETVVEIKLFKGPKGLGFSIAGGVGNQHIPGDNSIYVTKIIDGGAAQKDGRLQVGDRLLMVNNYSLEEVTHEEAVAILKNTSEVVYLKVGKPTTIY
Chain of LIMK2, P53671 (P53671 143-248): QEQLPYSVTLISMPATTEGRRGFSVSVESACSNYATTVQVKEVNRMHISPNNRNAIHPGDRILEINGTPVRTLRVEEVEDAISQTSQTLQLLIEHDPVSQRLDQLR
Chain of TJP1_2, Q07157 (Q07157 181-274): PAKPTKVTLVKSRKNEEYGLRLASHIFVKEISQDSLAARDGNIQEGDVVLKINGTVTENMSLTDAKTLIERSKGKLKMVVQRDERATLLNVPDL
Chain of NHERF4_2, Q86UT5 (Q86UT5 220-308): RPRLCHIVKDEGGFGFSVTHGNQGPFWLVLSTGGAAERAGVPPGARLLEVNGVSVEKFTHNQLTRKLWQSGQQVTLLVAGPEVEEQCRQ
Chain of PARD3_3, Q8TEW0 (Q8TEW0 582-685): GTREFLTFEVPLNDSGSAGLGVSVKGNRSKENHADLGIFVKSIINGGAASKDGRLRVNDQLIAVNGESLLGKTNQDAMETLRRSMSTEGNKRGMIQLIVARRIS
Chain of GORASP1, Q9BQQ3 (Q9BQQ3 1-208): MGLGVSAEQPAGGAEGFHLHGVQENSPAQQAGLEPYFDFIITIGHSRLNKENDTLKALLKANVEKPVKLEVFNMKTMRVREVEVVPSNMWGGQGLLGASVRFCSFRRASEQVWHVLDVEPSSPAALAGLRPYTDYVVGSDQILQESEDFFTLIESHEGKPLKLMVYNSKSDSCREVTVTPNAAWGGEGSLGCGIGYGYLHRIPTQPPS
Chain of CASK, O14936 (O14936 487-570): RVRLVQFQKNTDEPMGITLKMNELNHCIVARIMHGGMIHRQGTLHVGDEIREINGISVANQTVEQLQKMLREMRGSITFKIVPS

Binder | pKd (PDZD7_3, Q9H5P4) | pKd (TJP2_1, Q9UDY2) | pKd (LIMK2, P53671) | pKd (APBA2_1, Q99767) | pKd (GRIP2_7, Q9C0E4) | pKd (PARD3B_1, Q8TEW8) | pKd (DLG2_2, Q15700) | pKd (GORASP1, Q9BQQ3) | pKd (APBA3_1, O96018) | pKd (TJP3_3, O95049) | pKd (DVL3, Q92997) | pKd (SIPA1L2, Q9P2F8) | pKd (DFNB31_2, Q9P202) | pKd (SNTG1, Q9NSN8) | pKd (MAGI1_2, Q96QZ7) | pKd (SCRIB_3, Q14160) | pKd (SNTA1, Q13424) | pKd (GRIP2_3, Q9C0E4) | pKd (ARHGEF12, Q9NZN5-2) | pKd (NHERF3_3, Q5T2W1) | further results
LGRSTPQSEV [DGKH, Q86XP1] | 4.4 | below the threshold | below the threshold | below the threshold | below the threshold | below the threshold | 3.58 | below the threshold | below the threshold | below the threshold | below the threshold | below the threshold | below the threshold | 3.96 | below the threshold | 3.8 | 3.8 | below the threshold | 4.18 | below the threshold | pKd (NHERF4_2, Q86UT5): below the threshold; pKd (CASK, O14936): below the threshold; pKd (HTRA3, P83110): below the threshold; pKd (PARD3_3, Q8TEW0): below the threshold; pKd (TJP1_2, Q07157): below the threshold; pKd (SCRIB_1, Q14160): 3.77
YNNCLEILRV [DCAF7, P61962] | below the threshold | below the threshold | below the threshold | below the threshold | below the threshold | 4.01 | below the threshold | 4.74 | below the threshold | below the threshold | 3.55 | below the threshold | below the threshold | below the threshold | below the threshold | below the threshold | below the threshold | below the threshold | below the threshold | below the threshold | pKd (NHERF4_2, Q86UT5): below the threshold; pKd (CASK, O14936): below the threshold; pKd (HTRA3, P83110): below the threshold; pKd (PARD3_3, Q8TEW0): 3.97; pKd (TJP1_2, Q07157): 4.25; pKd (SCRIB_1, Q14160): below the threshold
RRISSLESEV [GRIN2C, Q14957] | 4.32 | below the threshold | below the threshold | below the threshold | below the threshold | below the threshold | 5.11 | below the threshold | below the threshold | below the threshold | below the threshold | below the threshold | below the threshold | 5.11 | 4.05 | 4.55 | 4.53 | below the threshold | 4.31 | below the threshold | pKd (NHERF4_2, Q86UT5): below the threshold; pKd (CASK, O14936): below the threshold; pKd (HTRA3, P83110): below the threshold; pKd (PARD3_3, Q8TEW0): below the threshold; pKd (TJP1_2, Q07157): below the threshold; pKd (SCRIB_1, Q14160): 4.69
PPYRHRNTVV [ERBB4, Q15303] | 4.63 | 3.81 | below the threshold | below the threshold | below the threshold | below the threshold | 4.95 | 4.19 | below the threshold | below the threshold | below the threshold | below the threshold | below the threshold | below the threshold | 4.21 | 3.58 | 5.32 | below the threshold | 4.12 | below the threshold | pKd (NHERF4_2, Q86UT5): below the threshold; pKd (CASK, O14936): below the threshold; pKd (HTRA3, P83110): below the threshold; pKd (PARD3_3, Q8TEW0): below the threshold; pKd (TJP1_2, Q07157): below the threshold; pKd (SCRIB_1, Q14160): 3.92

— PMC9482650, “Quantitative fragmentomics allow affinity mapping of interactomes” (Nature Communications, 2022)
